Measurements from paper PMC6640694 (Antibodies, 2019).
Where a chain is given by its changes, count along the chain named.

B1: tOX40.40 (S-CL-LN-7) (antibody, V domains shown)
VH: QVQLVESGGDVVQPGMSLRLSCAASGFTFSDYGMHWVRQAPGKGLEWVAVIWYDGSNKYYEDSVKGRFTISRDNSKNTLYLQMNSLRAEDTAVYYCTRAGFGESGYGMDVWGQGTTVTVSS
VL: DIQMTQSPSSLSASVGDRVTITCRASQGISNYLAWYQQKPGKVPKLLIYAASTLQSGVPSRFSGSGSGTDFTLTISSLQPEDVATYYCQKYHSAPWTFGQGTKVEIK
B2: tOX40.23 (S-CL-LN-8) (antibody, V domains shown)
VH: B1 VH with D10G, M16R, D31N, N57K, E61A, T97A
VL: B1 VL with I21F, S30N, H92Y, I106V
B3: tOX40.35 (S-S-Sp-3) (antibody, V domains shown)
VH: QVQLVQSGAEVKKPGASVKVSCKASGYTFTSYGITWVRQAPGQGLEWVGWISAYNGNTNYAQKLQGRVTMTTDTSTSTAYMELRSLRSDDTAVYYCARDFAGGSYYFDYWGQGTLVTVSS
VL: not shown
B4: tOX40.21 (S-CL-LN-2) (antibody, V domains shown)
VH: QVQLVESGGGVVQPGRSLRLSCAASGFTFSNYGMHWVRQAPGKGLEWVAVIWYDGSNKYYADSVKGRFTISRDNSKNTLYLQMNSLRAEDTAVYYCARNGDSYFDYWGQGTLVTVSS
VL: not shown
B5: tOX40.15 (S-S-Sp-6) (antibody, V domains shown)
VH: QVQLVESGGGVVQPGRSLRLSCAASGFTFSSYGMHWVRQAPGKGLEWVAIIWYDGSNKYYADSVKGRFTISRDNSKNTLYLQMNSLRAEDTAVYFCAREGDYYGSGSYYPLDYYYYGMDVWGQGTTVTVSS
VL: DIQLTQSPSFLSASVGDRVTITCRASQGISSYLAWYQQKPGKAPKLLIYAASTLQSGVPSRFSGSGSGTEFTLTISSLQPEDFATYYCQQLNSFPRTFGQGTKVEIK
B6: tOX40.31 (S-CL-LN-11) (antibody, V domains shown)
VH: QVQLQESGPGLVKPSETLSLTCTVSGDSISFYYWSWIRQPPGKGLEWIGCIYYSGSTNYNPSLKSRVTISVDTSKNQFSLKLNSVTAADTAVYYCARRLWFGVFDYWGQGTLVPVSS
VL: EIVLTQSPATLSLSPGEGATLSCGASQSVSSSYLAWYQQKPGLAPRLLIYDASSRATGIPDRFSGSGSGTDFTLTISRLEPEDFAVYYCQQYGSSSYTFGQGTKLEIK
B7: tOX40.39 (S-CL-LN-1) (antibody, V domains shown)
VH: EVQLVESGGGLVQPGGSLRLSCAASGFTFSNYAMTWVRQAPGKGLEWVSTISGSGGSTYYADSVKGRFTISRDNSKNTLYLQMNSLRAEDTAVYYCAKADCGDNCYSFFDYWGQGTLVTVSS
VL: DIQMTQSPSSLSASVGDRVTITCRASQGISNWLAWYQQKPEKAPKSLIYAASSLQSGVPSRFSGSGSGTDFTLTISSLQPEDFATYYCQQYNSYPPTFGRGTKVEIK
B8: tOX40.41 (S-CL-LN-9) (antibody, V domains shown)
VH: QVQLQESGPGLVKPSETLSLTCTVSGGSISSYYWSWIRQPPGKGLEWIGYIYYSGSTNYNPSLKSRVTISVDTSKNQFSLKLSSVTAADTAVYYCARYYDILTVWDWFDPWGQGTLVTVSS
VL: B7 VL with N31S, E41G, P96I, R100Q, K103R, V104L
B9: tOX40.37 (S-S-Sp-10/S-CL-Sp-1) (antibody, V domains shown)
VH: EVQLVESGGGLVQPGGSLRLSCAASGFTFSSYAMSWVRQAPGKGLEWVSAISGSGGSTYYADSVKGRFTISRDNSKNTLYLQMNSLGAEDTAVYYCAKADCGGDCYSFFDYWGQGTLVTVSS
VL: B7 VL with N31S, R100Q
B10: tOX40.22 (S-CL-LN-5) (antibody, V domains shown)
VH: QVQLVESGGGVVQPGRSLRLSCAASGFTFSNYGMHWVRQAPGKGLEWVAVIWLDGSNKYYADSVKGRFTISRDNSKNTLYLQMNSLRAEDTAVYYCARAAAGSLYYGMDVWGQGTTVTVSS
VL: B7 VL with S30N, N31T, N92Y, P96W, R100Q, K107R
B11: tOX40.4 (S-S-Sp-1/S-CL-Sp-2) (antibody, V domains shown)
VH: QVQLVQSGAEVKKPGASVKVSCKVSGYTLTELSMHWVRQAPGKGLEWMGGFDPKDGETIYAQKFQGRVTMTEDTSTDTAYMELSSLRSEDTAVYYCSTGYCSTTSCGGFDPWGQGTLVTVSS
VL: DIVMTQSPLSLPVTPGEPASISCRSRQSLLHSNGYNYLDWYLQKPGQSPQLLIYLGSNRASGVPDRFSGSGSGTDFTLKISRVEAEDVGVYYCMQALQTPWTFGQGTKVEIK
B12: tOX40.19 (S-CL-LN-4) (antibody, V domains shown)
VH: QVQLVESGGGVVQPGRSLRLSCAASGFTFSTYGMHWVRQAPGKGLEWVAVIWYDGSNKYYADSVKGRFTISRDNSKNTLYLQMNSLRAEDTAVYYCARTHYDILTGPNWFDPWGQGTLVTVSS
VL: DIQMTQSPSSLSASVGDRVTITCRASQDIRNDLGWYQQKPGKAPKRLIYAASSLQSGVPSRFSGSGSGTEFTLTISSLQPEDFATYYCLQHNSYPFTFGPGTKVDIK
B13: tOX40.24 (antibody, V domains shown)
VH: QVQLVESGGGVVQPGRSLRLSCAASGFTFRSYGMHWVRQAPGKGLEWLAIIWYDGSNKYYADSVKGRLTISRDNSKNTLYLQMNSLRAEDTAVYYCARDTQVAEAGFPHHHYYGMDVWGQGTTVTVSS
VL: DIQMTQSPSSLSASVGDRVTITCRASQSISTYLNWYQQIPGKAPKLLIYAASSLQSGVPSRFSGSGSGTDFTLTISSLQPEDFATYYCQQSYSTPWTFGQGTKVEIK
notes: human IgHG1 constant domains; kappa; source: ExpiCHO, transiently transfected; quantified in the supernatants
B14: tOX40.63 (antibody, V domains shown)
VH: QVQLVQSGAEVKKPGASVKVSCKVSGYTLTELSMHWVRQAPGKGLEWMGGFDPEDGETIYAQKFQGRVTMTEDTSTDTAYMELSSLRSEDTAVYYCAANWGSDYYYGMDVWGQGTTVTVSS
VL: B5 VL with D1A, F10S, Y32A, A50D, T53S, Q55E, E70D, L91F, S93N, F94Y
notes: as for B13

These binders were tested against T1, recombinant His-tagged human OX40 extracellular domain (Homo sapiens, UniProt P43489) (assay: not given). Conditions: not given.
T1 sequence (P43489 29-214): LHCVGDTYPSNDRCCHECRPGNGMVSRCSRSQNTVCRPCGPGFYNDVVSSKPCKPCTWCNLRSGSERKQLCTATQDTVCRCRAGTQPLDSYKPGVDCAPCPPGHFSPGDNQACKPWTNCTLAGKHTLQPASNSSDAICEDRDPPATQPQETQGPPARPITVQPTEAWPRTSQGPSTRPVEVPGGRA

| Binder | Kd [nM] |
| --- | --- |
| B1 | 151 |
| B2 | 5.2 |
| B3 | 2.7 |
| B4 | 7 |
| B5 | 6 |
| B6 | 22.4 |
| B7 | 90 |
| B8 | 58.4 |
| B9 | 12.5 |
| B10 | 7.3 |
| B11 | 9 |
| B12 | 7.7 |

What follows are binders tested against T2, human OX40 expressed on Flp-In CHO cells (Homo sapiens, UniProt P43489) (assay: cell-based or functional assay). Conditions: not given.
T2 sequence (P43489 29-277): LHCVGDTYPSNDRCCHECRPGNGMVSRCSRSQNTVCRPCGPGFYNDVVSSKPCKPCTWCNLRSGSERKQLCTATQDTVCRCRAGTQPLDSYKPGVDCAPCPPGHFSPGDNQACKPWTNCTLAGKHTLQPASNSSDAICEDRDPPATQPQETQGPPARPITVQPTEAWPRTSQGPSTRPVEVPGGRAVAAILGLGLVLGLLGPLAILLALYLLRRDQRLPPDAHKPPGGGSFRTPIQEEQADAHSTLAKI

| Binder | Promega In Vitro Assay EC50 (Agonist): luminescence of OX40-expressing Jurkat cells with FcγRIIB/CHO-K1 cells [µg/mL] |
| --- | --- |
| B13 | 0.024 |

The binders below were run against T1, recombinant His-tagged human OX40 … (assay: BLI; Octet Red96; 5 μg/mL antibody loaded onto Protein A biosensor, dipped into His-tagged OX40 extracellular domain at 200, 100 and 50 nM or 1600, 800 and 400 nM; 1:1 binding model, global fit). Conditions: one partner purified.

| Binder | Kd [nM] |
| --- | --- |
| B13 | 22.9 |

The binders below were run against T2, human OX40 expressed on Flp-In CHO cells (assay: flow cytometry on cells; one million CHO cells (1:1 mix of OX40-expressing and PD-1-expressing negative control cells) stained with 1 μg mAb in 100 μL MACS Buffer (DPBS, 0.5% BSA, 2 mM EDTA), 30 min, 4 °C; detected with anti-human IgG Fc-PE). Conditions: partners not purified.

| Binder | binding result |
| --- | --- |
| B14 | no binding (tested: 1 μg of anti-OX40 mAb in 100 μL) |
